Data published in publication PMC10221436, “Reagentless Electrochemical Detection of Tumor Biomarker Based on Stable Confinement of Electrochemical Probe in Bipolar Silica Nanochannel Film”.

How the values were obtained:
[1] = target: carcinoembryonic antigen (CEA) (UniProt P06731 35-685); assay: electrochemical aptasensor (DPV, CV, EIS); 1 pg/mL-1 ug/mL CEA; LOD 0.22 pg/mL (not a Kd); 0.01 M PBS (sodium phosphate) pH 7.4; BSA-blocked electrode; CEA incubation temperature and time not in the material; details: protein: commercial
Sequence of carcinoembryonic antigen (CEA) (P06731 35-685): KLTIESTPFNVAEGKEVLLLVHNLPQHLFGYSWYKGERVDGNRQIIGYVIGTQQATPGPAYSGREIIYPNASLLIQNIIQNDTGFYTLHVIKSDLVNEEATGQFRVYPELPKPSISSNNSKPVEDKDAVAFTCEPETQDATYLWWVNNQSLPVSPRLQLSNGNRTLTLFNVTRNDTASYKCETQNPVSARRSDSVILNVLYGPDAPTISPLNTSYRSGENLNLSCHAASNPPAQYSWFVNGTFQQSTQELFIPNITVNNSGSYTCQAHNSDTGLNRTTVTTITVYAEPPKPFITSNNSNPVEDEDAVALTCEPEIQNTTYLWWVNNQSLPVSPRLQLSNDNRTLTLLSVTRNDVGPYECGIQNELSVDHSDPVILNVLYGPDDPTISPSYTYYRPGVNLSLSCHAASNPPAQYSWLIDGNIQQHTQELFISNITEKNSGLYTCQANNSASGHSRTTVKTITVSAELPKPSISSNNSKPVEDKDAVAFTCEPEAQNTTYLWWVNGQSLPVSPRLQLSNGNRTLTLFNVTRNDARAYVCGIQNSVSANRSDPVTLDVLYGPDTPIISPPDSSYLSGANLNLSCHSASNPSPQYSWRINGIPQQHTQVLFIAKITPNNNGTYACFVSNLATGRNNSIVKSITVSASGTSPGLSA

C-reactive protein (CRP) = target: T1, C-reactive protein (CRP) (UniProt P02741 19-224); assay: electrochemical aptasensor (MB peak current ratio); 10 ng/mL CRP; 0.01 M PBS (sodium phosphate) pH 7.4; BSA-blocked electrode; CEA incubation temperature and time not in the material; details: protein: commercial; chain copies: 5
T1 sequence: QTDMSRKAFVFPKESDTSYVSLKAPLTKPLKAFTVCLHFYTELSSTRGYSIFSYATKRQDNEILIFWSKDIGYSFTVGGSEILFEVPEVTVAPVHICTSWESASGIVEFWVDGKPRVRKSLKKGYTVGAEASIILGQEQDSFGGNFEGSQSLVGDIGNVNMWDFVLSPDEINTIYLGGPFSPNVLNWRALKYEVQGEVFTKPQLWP

[2] = target: cancer antigen 15-3 (CA15-3) (UniProt P15941 24-1097); assay: electrochemical aptasensor (MB peak current ratio); 10 uU/mL CA15-3; 0.01 M PBS (sodium phosphate) pH 7.4; BSA-blocked electrode; CEA incubation temperature and time not in the material; details: protein: commercial
Sequence of cancer antigen 15-3 (CA15-3) (P15941 24-1097): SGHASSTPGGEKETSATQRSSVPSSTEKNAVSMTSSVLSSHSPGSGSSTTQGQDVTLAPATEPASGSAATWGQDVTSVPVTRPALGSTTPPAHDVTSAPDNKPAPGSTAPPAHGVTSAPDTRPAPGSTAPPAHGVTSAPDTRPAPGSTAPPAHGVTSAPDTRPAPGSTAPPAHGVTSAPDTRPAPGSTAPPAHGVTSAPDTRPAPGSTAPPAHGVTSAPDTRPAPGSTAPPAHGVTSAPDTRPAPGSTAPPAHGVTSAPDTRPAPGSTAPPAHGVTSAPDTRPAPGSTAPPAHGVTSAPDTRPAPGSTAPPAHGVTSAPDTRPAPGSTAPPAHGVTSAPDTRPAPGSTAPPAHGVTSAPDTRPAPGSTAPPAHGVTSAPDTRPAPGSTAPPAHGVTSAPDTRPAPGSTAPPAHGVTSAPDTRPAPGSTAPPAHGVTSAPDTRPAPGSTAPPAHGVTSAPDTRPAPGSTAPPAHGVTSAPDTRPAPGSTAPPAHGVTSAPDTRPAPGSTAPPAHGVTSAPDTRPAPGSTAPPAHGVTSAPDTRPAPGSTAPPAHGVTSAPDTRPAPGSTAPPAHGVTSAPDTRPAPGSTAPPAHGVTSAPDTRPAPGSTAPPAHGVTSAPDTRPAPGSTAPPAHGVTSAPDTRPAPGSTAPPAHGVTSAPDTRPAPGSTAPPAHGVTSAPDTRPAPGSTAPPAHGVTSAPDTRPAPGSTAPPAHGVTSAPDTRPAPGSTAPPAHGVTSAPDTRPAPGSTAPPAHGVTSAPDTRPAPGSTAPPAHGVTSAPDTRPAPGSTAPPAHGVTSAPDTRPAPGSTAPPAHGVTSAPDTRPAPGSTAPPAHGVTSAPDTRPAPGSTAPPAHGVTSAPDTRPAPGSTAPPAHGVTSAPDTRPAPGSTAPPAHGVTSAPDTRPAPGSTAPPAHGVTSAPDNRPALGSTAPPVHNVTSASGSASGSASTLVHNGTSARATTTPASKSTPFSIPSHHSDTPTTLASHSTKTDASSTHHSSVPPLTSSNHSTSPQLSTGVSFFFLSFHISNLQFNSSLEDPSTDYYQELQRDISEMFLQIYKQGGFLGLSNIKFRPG

[3] = target: prostate-specific antigen (PSA) (UniProt P07288 25-261); assay: electrochemical aptasensor (MB peak current ratio); 10 ng/mL PSA; 0.01 M PBS (sodium phosphate) pH 7.4; BSA-blocked electrode; CEA incubation temperature and time not in the material; details: protein: commercial
Sequence of prostate-specific antigen (PSA) (P07288 25-261): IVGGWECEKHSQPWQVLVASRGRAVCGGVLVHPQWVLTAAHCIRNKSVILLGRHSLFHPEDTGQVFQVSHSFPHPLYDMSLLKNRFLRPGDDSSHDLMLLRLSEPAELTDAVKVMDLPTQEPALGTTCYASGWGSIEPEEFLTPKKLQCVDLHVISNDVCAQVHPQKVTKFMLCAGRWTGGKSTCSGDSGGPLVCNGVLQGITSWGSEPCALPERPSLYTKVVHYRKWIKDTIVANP

alpha fetoprotein (AFP) = target: T2, alpha fetoprotein (AFP) (UniProt P02771 19-609); assay: electrochemical aptasensor (MB peak current ratio); 10 ng/mL AFP; 0.01 M PBS (sodium phosphate) pH 7.4; BSA-blocked electrode; CEA incubation temperature and time not in the material; details: protein: commercial
T2 sequence: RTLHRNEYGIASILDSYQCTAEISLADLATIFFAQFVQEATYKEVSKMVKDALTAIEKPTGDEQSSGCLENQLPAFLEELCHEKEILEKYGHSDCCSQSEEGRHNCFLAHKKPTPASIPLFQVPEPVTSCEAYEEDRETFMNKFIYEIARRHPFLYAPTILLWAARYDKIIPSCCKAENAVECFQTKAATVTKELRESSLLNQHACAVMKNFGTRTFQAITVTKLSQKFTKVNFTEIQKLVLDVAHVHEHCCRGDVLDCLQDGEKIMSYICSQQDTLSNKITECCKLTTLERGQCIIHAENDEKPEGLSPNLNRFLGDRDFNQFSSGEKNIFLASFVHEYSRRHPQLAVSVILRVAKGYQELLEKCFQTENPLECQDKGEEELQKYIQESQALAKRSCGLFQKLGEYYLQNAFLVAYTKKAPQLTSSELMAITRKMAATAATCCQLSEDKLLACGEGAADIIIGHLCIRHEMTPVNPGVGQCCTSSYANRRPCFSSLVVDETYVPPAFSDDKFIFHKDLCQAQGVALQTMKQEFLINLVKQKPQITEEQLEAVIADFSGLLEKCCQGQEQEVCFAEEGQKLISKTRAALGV

ATACAGCTTCAATT (ssDNA, 3'-NH2, immobilized via glutaraldehyde on amino-silica film) [CEA aptamer]
binding result [1]: binds | binding result (C-reactive protein (CRP)): no binding | binding result [2]: no binding | binding result [3]: no binding | binding result (alpha fetoprotein (AFP)): no binding
